Values belong to the binder of their own block, whether it stands above or below them.
What was measured:
human STEAP-1 [1] = molecular target: T1, human STEAP-1 (human, UniProt Q9UHE8 1-339); test: Scatchard analysis on 293 STEAP-1 NT LB50 cells
T1 construct: also called Six Transmembrane Epithelial Antigen of the Prostate

human STEAP-1 [2] = molecular target: T1, human STEAP-1; test: Scatchard analysis; the sentence names no reference (the preceding sentences compare with chimeric 120 IgG)
From the text: (§1) IgG Production and Affinity Determination -IgG was purified with Protein G affinity chromatography.
Although the 120-graft IgG bound specifically to the STEAP-1 expressing cells, the FACS signal observed for the 120-graft IgG was smaller than that observed for the chimeric 120 IgG indicating a loss in binding affinity. Phage displaying the 120-graft Fab also generated a FACS signal that was only observed on STEAP-1 expressing cells. This shift was less than that observed for the chimeric 120 IgG.

human STEAP-1 [3] = molecular target: T1, human STEAP-1; test: Scatchard analysis on 293-LB50 cells (exogenous STEAP-1), average
From the text: (§2) JgG was purified with Protein G affinity chromatography.

human STEAP-1 [4] = molecular target: T1, human STEAP-1; test: Scatchard analysis on LNCaP-BR cells (endogenous STEAP-1), average
From the text: as §2

human STEAP-1 [5] = molecular target: T1, human STEAP-1; test: Scatchard analysis on 293.LB50 cells (exogenous STEAP-1), Assay 735; displacement plot 26E and Scatchard plot 26F
From the text: as §2

human STEAP-1 [6] = molecular target: T1, human STEAP-1; test: Scatchard analysis on 293.LB50 cells (exogenous STEAP-1), Assay 736; displacement plot 26G and Scatchard plot 26H
From the text: as §2

human STEAP-1 [7] = molecular target: T1, human STEAP-1; test: Scatchard analysis on LNCaP.BR cells (endogenous STEAP-1), Assay 733; displacement plot 25E and Scatchard plot 25F
From the text: as §2

human STEAP-1 [8] = molecular target: T1, human STEAP-1; test: Scatchard analysis on LNCaP.BR cells (endogenous STEAP-1), Assay 734; displacement plot 25G and Scatchard plot 25H
From the text: as §2

human STEAP-1 [9] = molecular target: T1, human STEAP-1; test: Scatchard analysis on 293-LB50 and LNCaP.BR cells
From the text: as §2

human STEAP-1 [10] = molecular target: T1, human STEAP-1; test: Scatchard analysis on 293.LB50 cells (exogenous STEAP-1)
From the text: as §1
When expressed as an IgG, 120.v24 produced a similar FACS shift to the chimeric 120 antibody at all concentrations tested.

[11] = molecular target: T2, cynomolgus monkey STEAP-1 (cynomolgus monkey, UniProt Q9UHE8 1-339 (human entry)); test: FACS on cells expressing cynomolgus STEAP-1 (panel title CYNO, cell line not named), PE detection
T2 construct: The cells carrying cyno STEAP-1 are not described; also called cyno STEAP-1
T2 sequence (Q9UHE8 other isoform, or with tags, fused parts or gaps): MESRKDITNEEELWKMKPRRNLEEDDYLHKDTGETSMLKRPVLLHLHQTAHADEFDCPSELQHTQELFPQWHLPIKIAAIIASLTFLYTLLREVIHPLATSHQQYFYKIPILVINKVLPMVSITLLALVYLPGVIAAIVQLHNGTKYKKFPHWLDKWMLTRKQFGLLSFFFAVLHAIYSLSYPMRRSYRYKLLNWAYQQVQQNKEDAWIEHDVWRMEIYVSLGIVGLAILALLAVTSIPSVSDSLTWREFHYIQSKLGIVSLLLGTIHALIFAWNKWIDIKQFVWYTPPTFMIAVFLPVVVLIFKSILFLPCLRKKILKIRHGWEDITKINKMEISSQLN

mouse STEAP-1 [12] = molecular target: T3, mouse STEAP-1 (mouse, UniProt Q9CWR7 1-339); test: FACS on cells expressing mouse STEAP-1 (panel title MOUSE, cell line not named), PE detection; key in Figure 7A: hu 24-67
T3 construct: The cells carrying mouse STEAP-1 are not described in the text; also called STEAP-1 from mouse
T3 sequence (Q9CWR7 other isoform, or with tags, fused parts or gaps): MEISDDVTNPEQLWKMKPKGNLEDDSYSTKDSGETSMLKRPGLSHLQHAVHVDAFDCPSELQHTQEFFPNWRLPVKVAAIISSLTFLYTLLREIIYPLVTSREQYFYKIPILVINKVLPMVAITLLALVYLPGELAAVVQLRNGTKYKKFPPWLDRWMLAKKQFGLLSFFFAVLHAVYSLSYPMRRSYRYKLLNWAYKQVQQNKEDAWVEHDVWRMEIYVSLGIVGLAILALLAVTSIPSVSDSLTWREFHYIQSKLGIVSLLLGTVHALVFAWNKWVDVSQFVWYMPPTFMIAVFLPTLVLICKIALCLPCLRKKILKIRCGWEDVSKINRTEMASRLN

human STEAP-1 [13] = molecular target: T1, human STEAP-1; test: Scatchard analysis on 293 cells transiently expressing human Steap1
From the text: as §2

[14] = molecular target: T2, cynomolgus monkey STEAP-1; test: Scatchard analysis on 293 cells transiently expressing cyno Steap1; side note: Same Affinity for human & cyno
human STEAP-1 [15] = molecular target: T1, human STEAP-1; test: Scatchard analysis on 293.LB50 cells (exogenous STEAP-1), Assay 737; displacement plot 26A and Scatchard plot 26B
From the text: as §2

human STEAP-1 [16] = molecular target: T1, human STEAP-1; test: Scatchard analysis on 293.LB50 cells (exogenous STEAP-1), Assay 738; displacement plot 26C and Scatchard plot 26D
From the text: as §2

human STEAP-1 [17] = molecular target: T1, human STEAP-1; test: Scatchard analysis on LNCaP.BR cells (endogenous STEAP-1), Assay 739; displacement plot 25A and Scatchard plot 25B
From the text: as §2

human STEAP-1 [18] = molecular target: T1, human STEAP-1; test: Scatchard analysis on LNCaP.BR cells (endogenous STEAP-1), Assay 740; displacement plot 25C and Scatchard plot 25D
From the text: as §2

human STEAP-1 [19] = molecular target: T1, human STEAP-1; test: Scatchard analysis on LNCaP-BR cells (endogenous STEAP-1)
human STEAP-1 [20] = molecular target: T1, human STEAP-1; test: Scatchard analysis on PC3-PS5.4 cells (exogenous STEAP-1)
mouse STEAP-1 [21] = molecular target: T3, mouse STEAP-1; test: FACS on cells expressing mouse STEAP-1 (panel title MOUSE, cell line not named), PE detection; key in Figure 7A: 120
mouse STEAP-1 [22] = molecular target: T3, mouse STEAP-1; test: FACS on cells expressing mouse STEAP-1 (panel title MOUSE, cell line not named), PE detection; key in Figure 7A: 120 chi

T1 sequence (Q9UHE8 other isoform, or with tags, fused parts or gaps): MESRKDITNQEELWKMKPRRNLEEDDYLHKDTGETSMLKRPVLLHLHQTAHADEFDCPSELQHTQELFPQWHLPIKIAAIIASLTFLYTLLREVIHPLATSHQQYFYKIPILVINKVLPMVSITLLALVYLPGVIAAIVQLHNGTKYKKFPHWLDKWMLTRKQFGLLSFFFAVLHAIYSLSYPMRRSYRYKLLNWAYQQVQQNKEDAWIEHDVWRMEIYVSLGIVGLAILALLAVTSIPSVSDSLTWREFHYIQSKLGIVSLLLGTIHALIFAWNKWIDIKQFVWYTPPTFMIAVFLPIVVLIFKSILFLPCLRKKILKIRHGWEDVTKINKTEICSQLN

Kd (human STEAP-1 [1]): 260 nM
fold loss in binding affinity (human STEAP-1 [2]): ~50 fold
B1: 120 graft IgG (antibody, V domains shown)
VH: EVQLVESGGGLVQPGGSLRLSCAASGYSITSDYAWNWVRQAPGKGLEWVGYISNSGSTSYNPSLKSRFTISRDNSKNTLYLQMNSLRAEDTAVYYCARERNYDYDDYYYAMDYWGQGTLVTVSS
VL: DIQMTQSPSSLSASVGDRVTITCKSSQSLLYRSNQKNYLAWYQQKPGKAPKLLIYWASTRESGVPSRFSGSGSGTDFTLTISSLQPEDFATYYCQQYYNYPRTFGQGTKVEIKR
notes: Direct CDR graft of murine 120 onto the human kappa I / VH subgroup III consensus, expressed as IgG; also called graft 120

Kd (human STEAP-1 [3]): 2.8 nM
Kd (human STEAP-1 [4]): 2.1 nM
Kd (human STEAP-1 [5]): 2.7 nM
Kd (human STEAP-1 [6]): 2.8 nM
Kd (human STEAP-1 [7]): 2.3 nM
Kd (human STEAP-1 [8]): 1.9 nM
B2: anti-STEAP-1 antibody SGIV (antibody, name in Kabat numbering, V domains shown)
VH: EVQLVESGGGLVQPGGSLRLSCAVSGYSITSDYAWNWVRQAPGKGLEWVGYISNSGSTSYNPSLKSRFTISRDNSKNTLYLQMNSLRAEDTAVYYCARERNYDYDDYYYAMDYWGQGTLVTVSS
VL: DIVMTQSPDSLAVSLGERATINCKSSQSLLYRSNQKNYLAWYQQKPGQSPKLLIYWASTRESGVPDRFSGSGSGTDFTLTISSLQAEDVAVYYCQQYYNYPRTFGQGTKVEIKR
notes: Described as a revised light chain variant of the 120.v24 antibody, expressed as IgG; also called Simmons IV; SGIV variant

fold improvement in Kd over the 120 chimera and the original murine M2-120.545 (human STEAP-1 [1]): 2 fold
fold binding affinity relative to the SGIV variant (human STEAP-1 [9]): ~1.5 fold
Kd (human STEAP-1 [10]): 2.2 nM
sites per cell (human STEAP-1 [10]): 264000 sites per cell
binding result [11]: binds
binding result (mouse STEAP-1 [12]): no binding
B3: humanized anti-STEAP-1 120v.24 (IgG) (antibody, name in Kabat numbering, V domains shown)
VH: EVQLVESGGGLVQPGGSLRLSCAVSGYSITSDYAWNWVRQAPGKGLEWVGYISNSGSTSYNPSLKSRFTISRDNSKNTLYLQMNSLRAEDTAVYYCARERNYDYDDYYYAMDYWGQGTLVTVSS
VL: DIQMTQSPSSLSASVGDRVTITCKSSQSLLYRSNQKNYLAWYQQKPGKAPKLLIYWASTRESGVPSRFSGSGSGTDFTLTISSLQPEDFATYYCQQYYNYPRTFGQGTKVEIKR
notes: also called humanized 120.v24; humanized version 24

Kd (human STEAP-1 [1]): 36 nM
B4: 120v.78 (antibody, name in Kabat numbering, V domains shown)
VH: EVQLVESGGGLVQPGGSLRLSCAASGYSITSDYAWNWVRQAPGKGLEWVGYISNSGSTSYNPSLKSRFTISRDNSKNTFYLQMNSLRAEDTAVYYCARERNYDYDDYYYAMDYWGQGTLVTVSS
VL: DIQMTQSPSSLSASVGDRVTITCKSSQSLLYRSNQKNYLAWYQQKPGKAPKLLIYWASTRESGVPSRFSGSGSGTDFTLTISSLQPEDFATYYCQQYYNYPRTFGQGTKVEIKR

Kd (human STEAP-1 [3]): 1.9 nM
Kd (human STEAP-1 [4]): 1.4 nM
Kd (human STEAP-1 [13]): 1.4 nM
Kd [14]: 1.1 nM
Kd (human STEAP-1 [15]): 1.7 nM
Kd (human STEAP-1 [16]): 2 nM
Kd (human STEAP-1 [17]): 1.1 nM
Kd (human STEAP-1 [18]): 1.7 nM
B5: Original Thio 120V24 (antibody, V domains shown)
VH: EVQLVESGGGLVQPGGSLRLSCAVSGYSITSDYAWNWVRQAPGKGLEWVGYISNSGSTSYNPSLKSRFTISRDNSKNTLYLQMNSLRAEDTAVYYCARERNYDYDDYYYAMDYWGQGTLVTVSS
VL: DIQMTQSPSSLSASVGDRVTITCKSSQSLLYRSNQKNYLAWYQQKPGKAPKLLIYWASTRESGVPSRFSGSGSGTDFTLTISSLQPEDFATYYCQQYYNYPRTFGQGTKVEIK
modifications: One engineered free cysteine per chain pair, taken to lie in a constant region and so not in these letters. paragraph 175 calls the antibody a thio-LC variant (V205C Kabat). The site for lot PUR 12813 is not stated at the results.
notes: also called orig thio (PUR 12813); Thio Mab

Kd (human STEAP-1 [10]): 4.7 nM
sites per cell (human STEAP-1 [10]): 301000 sites per cell
Kd (human STEAP-1 [19]): 1.5 nM
Kd (human STEAP-1 [20]): 17.5 nM
binding result [11]: binds
binding result (mouse STEAP-1 [21]): no binding
B6: murine anti-STEAP-1 MAb 120.545 (antibody, V domains shown)
VH: DVQVQESGPGLVKPSQSLSLTCTVTGYSITSDYAWNWIRQFPGNKLEWMGYISNSGSTSYNPSLKSRISITRDTSKNQFFLQLISVTTEDTATYYCARERNYDYDDYYYAMDYWGQGTTLTVSA
VL: DIVMSQSPSSLAVSVGEKVTMSCKSSQSLLYRSNQKNYLAWYQQKPGQSPKLLIYWASTRESGVPDRFTGSGSGTDFTLTISSVKAEDLAVYYCQQYYNYPRTFGGGTKVEIK
notes: also called murine 120

Kd (human STEAP-1 [10]): 4.9 nM
sites per cell (human STEAP-1 [10]): 253000 sites per cell
Kd (human STEAP-1 [19]): 0.9 nM
Kd (human STEAP-1 [20]): 9.9 nM
binding result [11]: binds
binding result (mouse STEAP-1 [22]): no binding
B7: 120 chimera (antibody, V domains shown)
VH: DVQVQESGPGLVKPSQSLSLTCTVTGYSITSDYAWNWIRQFPGNKLEWMGYISNSGSTSYNPSLKSRISITRDTSKNQFFLQLISVTTEDTATYYCARERNYDYDDYYYAMDYWGQGTTLTVSA
VL: DIVMSQSPSSLAVSVGEKVTMSCKSSQSLLYRSNQKNYLAWYQQKPGQSPKLLIYWASTRESGVPDRFTGSGSGTDFTLTISSVKAEDLAVYYCQQYYNYPRTFGGGTKVEIK
notes: If that entry holds a murine constant part, only its variable part applies here; also called chimera 120; chimeric 120 IgG

— US20090280056A1 (Genentech, published 2009)
